T1: OATP4C1 (Homo sapiens, UniProt Q6ZQN7)
T1 construct: gene SLCO4C1
T1 sequence (Q6ZQN7 1-724): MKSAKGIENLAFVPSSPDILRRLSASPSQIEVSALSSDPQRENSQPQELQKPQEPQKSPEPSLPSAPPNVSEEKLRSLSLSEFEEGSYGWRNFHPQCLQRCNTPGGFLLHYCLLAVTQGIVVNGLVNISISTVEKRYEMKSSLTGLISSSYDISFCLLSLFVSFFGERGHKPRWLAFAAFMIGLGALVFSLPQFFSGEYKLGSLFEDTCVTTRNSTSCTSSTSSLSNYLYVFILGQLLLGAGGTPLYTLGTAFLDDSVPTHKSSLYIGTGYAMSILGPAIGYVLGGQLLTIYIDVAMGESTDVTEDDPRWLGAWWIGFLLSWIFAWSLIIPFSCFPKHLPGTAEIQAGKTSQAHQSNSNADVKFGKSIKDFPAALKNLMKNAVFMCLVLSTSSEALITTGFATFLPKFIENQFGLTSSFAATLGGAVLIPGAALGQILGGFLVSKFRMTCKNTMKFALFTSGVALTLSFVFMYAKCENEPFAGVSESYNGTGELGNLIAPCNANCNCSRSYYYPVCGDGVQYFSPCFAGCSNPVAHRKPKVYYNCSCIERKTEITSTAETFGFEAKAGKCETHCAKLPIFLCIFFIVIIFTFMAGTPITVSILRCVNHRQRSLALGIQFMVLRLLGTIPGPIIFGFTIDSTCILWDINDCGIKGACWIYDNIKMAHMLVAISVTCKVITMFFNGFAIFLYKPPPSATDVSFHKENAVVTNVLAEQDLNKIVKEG


Legend:
OATP4C1 = target: T1, OATP4C1; experiment: inhibition of OATP4C1-mediated L-homoarginine ([…]) net uptake in HEK cells; type: cell-based
[1] = substrate: N=C(N)NCCCC[C@H](N)C(=O)O; experiment: radiolabeled uptake and efflux in HEK-OATP4C1 vs vector control cells (Km); type: cell-based, Homo sapiens
[2] = substrate: N=C(N)NCCC[C@H](N)C(=O)O; experiment: radiolabeled uptake in HEK-OATP4C1 vs vector control cells (Km); type: cell-based, Homo sapiens
[3] = substrate: CN(C)C(=N)NCCC[C@H](N)C(=O)O; experiment: radiolabeled uptake and efflux in HEK-OATP4C1 vs vector control cells (Km); also inhibits L-homoarginine uptake; type: cell-based, Homo sapiens

Molecule	IC50 (OATP4C1) [µM]	Km [1] [µM]	Km [2] [µM]	Km [3] [µM]
CN=C(NC)NCCC[C@H](N)C(=O)O [SDMA]	54 ± 1.3	–	–	–
OATP4C1 (Homo sapiens) (protein) MKSAKGIENLAFVPSSPDILRRLSASPSQIEVSALSSDPQRENSQPQELQKPQEPQKSPEPSLPSAPPNVSEEKLRSLSLSEFEEGSYGWRNFHPQCLQRCNTPGGFLLHYCLLAVTQGIVVNGLVNISISTVEKRYEMKSSLTGLISSSYDISFCLLSLFVSFFGERGHKPRWLAFAAFMIGLGALVFSLPQFFSGEYKLGSLFEDTCVTTRNSTSCTSSTSSLSNYLYVFILGQLLLGAGGTPLYTLGTAFLDDSVPTHKSSLYIGTGYAMSILGPAIGYVLGGQLLTIYIDVAMGESTDVTEDDPRWLGAWWIGFLLSWIFAWSLIIPFSCFPKHLPGTAEIQAGKTSQAHQSNSNADVKFGKSIKDFPAALKNLMKNAVFMCLVLSTSSEALITTGFATFLPKFIENQFGLTSSFAATLGGAVLIPGAALGQILGGFLVSKFRMTCKNTMKFALFTSGVALTLSFVFMYAKCENEPFAGVSESYNGTGELGNLIAPCNANCNCSRSYYYPVCGDGVQYFSPCFAGCSNPVAHRKPKVYYNCSCIERKTEITSTAETFGFEAKAGKCETHCAKLPIFLCIFFIVIIFTFMAGTPITVSILRCVNHRQRSLALGIQFMVLRLLGTIPGPIIFGFTIDSTCILWDINDCGIKGACWIYDNIKMAHMLVAISVTCKVITMFFNGFAIFLYKPPPSATDVSFHKENAVVTNVLAEQDLNKIVKEG	–	49.9 ± 9.6	48.1 ± 5.7	232.1 ± 78.9

Reference: article PMC6415861, “The renal transport protein OATP4C1 mediates uptake of the uremic toxin asymmetric dimethylarginine (ADMA) and efflux of cardioprotective L-homoarginine” (PLoS ONE, 2019)
